Values joined by “and” are separate entries in the source; they are usually repeats but may differ in a detail not shown here. Equal values may be shown once. Read-outs that look alike come from different tables or passages of the source. Ends that are not written are not given here. * marks the point of attachment. Cam = NC(=O)C*
Legend:
[1] = target: T1, human complement component C5 (human, UniProt P01031 19-673; P01031 678-1676); assay: SPR, cysteines reduced and capped with iodoacetamide; K92, cysteines reduced and capped with iodoacetamide
T1 construct: mature; Mature C5 is a disulphide-linked beta and alpha chain cut from one precursor; Terbium-labelled in the FRET assays, biotinylated in part of the phage ELISA; also called human C5; C5-Tb
T1 sequence (P01031 19-673 limits assumed, chain 1 of 2): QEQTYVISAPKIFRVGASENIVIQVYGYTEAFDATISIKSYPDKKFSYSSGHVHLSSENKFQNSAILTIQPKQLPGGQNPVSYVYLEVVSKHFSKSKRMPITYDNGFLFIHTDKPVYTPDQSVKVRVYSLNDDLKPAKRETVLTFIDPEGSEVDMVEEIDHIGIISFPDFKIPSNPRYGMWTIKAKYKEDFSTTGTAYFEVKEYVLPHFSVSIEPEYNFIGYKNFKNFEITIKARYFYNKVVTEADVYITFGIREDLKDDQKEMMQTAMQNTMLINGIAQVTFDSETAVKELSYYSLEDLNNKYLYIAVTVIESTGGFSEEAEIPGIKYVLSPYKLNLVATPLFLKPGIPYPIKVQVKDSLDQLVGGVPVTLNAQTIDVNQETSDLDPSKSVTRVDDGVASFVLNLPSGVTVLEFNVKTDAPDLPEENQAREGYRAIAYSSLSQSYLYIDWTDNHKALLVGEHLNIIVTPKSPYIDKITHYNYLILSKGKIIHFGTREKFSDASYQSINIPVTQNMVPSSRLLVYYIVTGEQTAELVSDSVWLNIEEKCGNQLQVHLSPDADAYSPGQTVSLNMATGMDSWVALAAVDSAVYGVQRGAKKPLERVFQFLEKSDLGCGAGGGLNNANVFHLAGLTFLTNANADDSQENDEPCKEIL
T1 sequence (P01031 678-1676 limits assumed, chain 2 of 2): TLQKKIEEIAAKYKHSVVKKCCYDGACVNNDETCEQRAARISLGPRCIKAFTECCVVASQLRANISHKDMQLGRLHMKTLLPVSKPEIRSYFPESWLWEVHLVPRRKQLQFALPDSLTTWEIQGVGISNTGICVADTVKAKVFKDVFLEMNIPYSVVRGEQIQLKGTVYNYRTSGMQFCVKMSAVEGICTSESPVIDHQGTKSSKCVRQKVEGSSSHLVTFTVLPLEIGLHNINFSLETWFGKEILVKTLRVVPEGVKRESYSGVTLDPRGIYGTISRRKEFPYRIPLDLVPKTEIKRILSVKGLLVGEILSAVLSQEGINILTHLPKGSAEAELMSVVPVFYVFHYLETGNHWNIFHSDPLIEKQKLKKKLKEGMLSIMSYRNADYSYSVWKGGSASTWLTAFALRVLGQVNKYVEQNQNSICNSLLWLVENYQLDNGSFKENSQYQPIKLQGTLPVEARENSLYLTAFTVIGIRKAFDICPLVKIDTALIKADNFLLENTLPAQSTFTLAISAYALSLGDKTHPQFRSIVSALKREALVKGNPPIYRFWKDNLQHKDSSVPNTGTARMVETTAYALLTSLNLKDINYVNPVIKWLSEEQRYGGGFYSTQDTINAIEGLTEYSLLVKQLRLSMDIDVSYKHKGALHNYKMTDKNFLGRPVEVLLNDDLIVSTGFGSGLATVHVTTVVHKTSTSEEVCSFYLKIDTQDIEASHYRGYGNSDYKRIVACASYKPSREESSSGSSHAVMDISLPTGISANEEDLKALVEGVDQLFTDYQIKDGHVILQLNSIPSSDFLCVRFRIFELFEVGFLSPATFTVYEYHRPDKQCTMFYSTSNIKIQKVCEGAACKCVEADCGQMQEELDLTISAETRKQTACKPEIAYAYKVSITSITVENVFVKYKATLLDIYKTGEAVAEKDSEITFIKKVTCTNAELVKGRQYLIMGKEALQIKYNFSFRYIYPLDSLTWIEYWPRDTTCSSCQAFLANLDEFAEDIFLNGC

[2] = target: T2, human serum albumin (human, UniProt P02768 25-609); assay: monoclonal phage ELISA
T2 construct: also called HSA

[3] = target: T1, human complement component C5; assay: cell-based or functional assay
[4] = target: T1, human complement component C5; assay: cell-based or functional assay; remark: listed apart in the source
[5] = target: T1, human complement component C5; assay: SPR multi-cycle kinetics, human C5 immobilised, mean of n=3
[6] = target: T3, rat C5 (Rattus norvegicus (rat), UniProt P08650 19-1681, limits assumed); assay: SPR multi-cycle kinetics, rat C5 immobilised
T3 construct: also called C5 protein from Rattus norvegicus (rat)

[7] = target: T1, human complement component C5; assay: cell-based or functional assay; remark: listed apart in the source
[8] = target: T4, human complement component C3 (human, UniProt P01024 23-667; P01024 672-1663); assay: cell-based or functional assay
T4 sequence (P01024 23-667 limits assumed, chain 1 of 2): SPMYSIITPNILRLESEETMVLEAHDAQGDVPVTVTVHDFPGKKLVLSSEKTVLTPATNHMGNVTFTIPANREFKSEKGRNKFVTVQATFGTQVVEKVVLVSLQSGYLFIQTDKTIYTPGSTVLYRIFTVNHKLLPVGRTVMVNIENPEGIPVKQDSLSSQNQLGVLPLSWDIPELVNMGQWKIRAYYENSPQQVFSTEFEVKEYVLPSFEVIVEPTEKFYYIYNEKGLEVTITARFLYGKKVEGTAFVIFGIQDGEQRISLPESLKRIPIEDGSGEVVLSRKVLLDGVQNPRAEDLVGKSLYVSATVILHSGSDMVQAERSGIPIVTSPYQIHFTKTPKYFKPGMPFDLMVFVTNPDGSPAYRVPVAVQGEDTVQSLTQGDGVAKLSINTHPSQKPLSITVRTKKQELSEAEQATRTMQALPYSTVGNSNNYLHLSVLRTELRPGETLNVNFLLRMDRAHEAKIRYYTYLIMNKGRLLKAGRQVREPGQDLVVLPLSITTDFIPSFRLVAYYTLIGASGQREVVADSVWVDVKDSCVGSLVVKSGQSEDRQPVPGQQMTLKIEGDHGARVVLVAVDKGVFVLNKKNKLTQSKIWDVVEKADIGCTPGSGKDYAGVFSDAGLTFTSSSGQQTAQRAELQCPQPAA
T4 sequence (P01024 672-1663 limits assumed, chain 2 of 2): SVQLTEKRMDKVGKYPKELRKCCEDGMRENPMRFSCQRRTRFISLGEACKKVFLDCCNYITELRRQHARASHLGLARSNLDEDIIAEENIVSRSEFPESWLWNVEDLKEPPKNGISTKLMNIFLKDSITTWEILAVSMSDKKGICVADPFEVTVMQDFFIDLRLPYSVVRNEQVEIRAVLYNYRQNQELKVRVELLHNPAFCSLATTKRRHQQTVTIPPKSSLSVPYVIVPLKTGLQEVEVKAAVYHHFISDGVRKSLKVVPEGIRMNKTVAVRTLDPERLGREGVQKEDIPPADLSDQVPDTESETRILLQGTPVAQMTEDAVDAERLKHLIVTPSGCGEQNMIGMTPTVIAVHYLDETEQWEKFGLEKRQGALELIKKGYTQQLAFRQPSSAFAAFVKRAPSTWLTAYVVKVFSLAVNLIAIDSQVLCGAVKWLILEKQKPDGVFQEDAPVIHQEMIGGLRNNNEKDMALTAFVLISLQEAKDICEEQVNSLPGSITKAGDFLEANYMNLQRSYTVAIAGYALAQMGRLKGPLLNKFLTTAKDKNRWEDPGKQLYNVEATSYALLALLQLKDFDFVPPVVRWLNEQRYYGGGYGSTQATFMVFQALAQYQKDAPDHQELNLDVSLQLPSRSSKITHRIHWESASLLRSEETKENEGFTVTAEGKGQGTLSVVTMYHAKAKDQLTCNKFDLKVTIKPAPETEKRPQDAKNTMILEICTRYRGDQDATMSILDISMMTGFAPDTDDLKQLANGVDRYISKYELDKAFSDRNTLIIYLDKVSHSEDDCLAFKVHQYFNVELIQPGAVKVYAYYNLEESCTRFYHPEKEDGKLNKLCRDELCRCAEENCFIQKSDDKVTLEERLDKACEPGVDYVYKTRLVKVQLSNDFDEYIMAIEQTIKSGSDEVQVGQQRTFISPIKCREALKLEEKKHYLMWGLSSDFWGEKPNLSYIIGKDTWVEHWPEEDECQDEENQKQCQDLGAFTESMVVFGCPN

[9] = target: T4, human complement component C3; assay: SPR (Biacore), C3, mean of n=3
[10] = target: T1, human complement component C5; assay: SPR (Biacore), C5
[11] = target: T4, human complement component C3; assay: cell-based or functional assay; remark: listed apart in the source
[12] = target: T1, human complement component C5; assay: SPR, cysteines reduced and capped with iodoacetamide; K57, cysteines reduced and capped with iodoacetamide
[13] = target: T1, human complement component C5; assay: cell-based or functional assay; remark: listed apart in the source
[14] = target: T1, human complement component C5; assay: cell-based or functional assay; remark: listed apart in the source
[15] = target: T1, human complement component C5
[16] = target: T1, human complement component C5; assay: cell-based or functional assay; remark: listed apart in the source
[17] = target: T5, mouse C5 (mouse, UniProt P06684 19-674; P06684 679-1680); assay: SPR single-cycle kinetics
T5 construct: mature; also called mouse C5 protein
T5 sequence (P06684 19-674 limits assumed, chain 1 of 2): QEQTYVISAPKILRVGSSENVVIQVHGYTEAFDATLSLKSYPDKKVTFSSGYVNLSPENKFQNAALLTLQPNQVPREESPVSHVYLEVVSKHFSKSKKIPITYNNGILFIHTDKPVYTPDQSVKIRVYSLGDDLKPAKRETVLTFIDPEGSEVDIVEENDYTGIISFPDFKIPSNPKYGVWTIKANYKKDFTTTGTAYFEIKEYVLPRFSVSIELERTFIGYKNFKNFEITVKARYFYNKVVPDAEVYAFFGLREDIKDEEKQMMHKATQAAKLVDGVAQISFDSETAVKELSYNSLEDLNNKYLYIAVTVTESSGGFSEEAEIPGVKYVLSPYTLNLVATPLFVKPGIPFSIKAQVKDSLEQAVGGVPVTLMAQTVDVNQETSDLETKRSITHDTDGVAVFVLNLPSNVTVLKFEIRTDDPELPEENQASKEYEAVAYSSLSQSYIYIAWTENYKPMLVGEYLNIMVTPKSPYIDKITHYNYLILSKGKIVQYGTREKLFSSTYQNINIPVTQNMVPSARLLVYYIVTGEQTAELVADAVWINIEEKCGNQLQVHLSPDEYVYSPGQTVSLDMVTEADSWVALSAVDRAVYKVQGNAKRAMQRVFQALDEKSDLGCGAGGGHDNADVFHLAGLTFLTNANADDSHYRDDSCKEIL
T5 sequence (P06684 679-1680 limits assumed, chain 2 of 2): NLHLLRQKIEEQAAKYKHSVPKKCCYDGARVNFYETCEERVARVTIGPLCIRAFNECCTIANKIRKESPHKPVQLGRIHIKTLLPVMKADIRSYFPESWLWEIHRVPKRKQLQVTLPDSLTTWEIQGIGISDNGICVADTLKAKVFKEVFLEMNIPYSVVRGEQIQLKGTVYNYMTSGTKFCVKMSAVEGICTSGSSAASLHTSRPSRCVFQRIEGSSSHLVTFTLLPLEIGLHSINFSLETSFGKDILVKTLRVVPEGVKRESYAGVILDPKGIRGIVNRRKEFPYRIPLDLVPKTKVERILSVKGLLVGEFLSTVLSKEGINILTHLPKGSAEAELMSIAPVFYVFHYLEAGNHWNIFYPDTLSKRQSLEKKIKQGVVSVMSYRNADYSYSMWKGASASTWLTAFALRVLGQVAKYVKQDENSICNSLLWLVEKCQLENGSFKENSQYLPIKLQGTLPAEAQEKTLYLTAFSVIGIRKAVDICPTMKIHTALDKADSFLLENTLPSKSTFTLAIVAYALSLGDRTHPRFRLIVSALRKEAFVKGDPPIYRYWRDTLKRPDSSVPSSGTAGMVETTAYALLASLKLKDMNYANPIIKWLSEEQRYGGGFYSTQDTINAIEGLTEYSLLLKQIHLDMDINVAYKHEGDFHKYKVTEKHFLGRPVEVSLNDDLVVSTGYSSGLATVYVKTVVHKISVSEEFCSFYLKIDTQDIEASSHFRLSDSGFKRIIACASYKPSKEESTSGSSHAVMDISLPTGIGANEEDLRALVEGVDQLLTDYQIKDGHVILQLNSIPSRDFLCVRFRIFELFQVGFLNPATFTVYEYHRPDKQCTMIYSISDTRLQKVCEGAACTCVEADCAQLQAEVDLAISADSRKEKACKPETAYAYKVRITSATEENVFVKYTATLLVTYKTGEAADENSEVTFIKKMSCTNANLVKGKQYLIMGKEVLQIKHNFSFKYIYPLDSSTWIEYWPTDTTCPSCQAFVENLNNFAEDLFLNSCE

[18] = target: T1, human complement component C5; assay: SPR single-cycle kinetics
[19] = target: T4, human complement component C3; assay: counter screen
[20] = target: T6, ovalbumin (UniProt P01012 2-386); assay: counter screen
T6 sequence (looked up): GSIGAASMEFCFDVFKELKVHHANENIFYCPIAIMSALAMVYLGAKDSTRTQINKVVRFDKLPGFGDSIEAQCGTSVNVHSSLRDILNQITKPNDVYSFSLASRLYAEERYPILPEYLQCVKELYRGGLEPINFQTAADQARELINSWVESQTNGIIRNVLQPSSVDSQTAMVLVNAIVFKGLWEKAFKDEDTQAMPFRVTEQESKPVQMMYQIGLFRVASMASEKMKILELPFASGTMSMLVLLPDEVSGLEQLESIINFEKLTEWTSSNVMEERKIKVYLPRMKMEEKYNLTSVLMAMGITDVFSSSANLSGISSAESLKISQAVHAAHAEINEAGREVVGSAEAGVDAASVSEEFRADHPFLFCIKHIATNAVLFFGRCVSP

[21] = target: T1, human complement component C5; remark: listed apart in the source
[22] = target: T1, human complement component C5; assay: cell-based or functional assay; remark: listed apart in the source
[23] = target: T1, human complement component C5; assay: cell-based or functional assay; remark: listed apart in the source
[24] = target: T4, human complement component C3; assay: phage ELISA, OD 630 nm, anti-M13 HRP; C3 coated directly and biotinylated C3 captured on streptavidin
[25] = target: T1, human complement component C5; assay: phage ELISA, OD 630 nm, anti-M13 HRP; C5 coated directly and biotinylated C5 captured on streptavidin

B1: K92, reduced and cysteines capped with iodoacetamide (peptide)
peptide: TC(Cam)PEGWSEC(Cam)GVAIYGYEC(Cam)GRWGC(Cam)GHFLNSGPNISPYVST
notes: also called K92 (loss of disulphide bonds)
Question: How did the Kd [1] turn out when B1 was run?
Answer: 2000 nM

B2: ultralong CDR-H3 of SEQ ID NO: 498 displayed on M13 phage (other)
chain: TTVHQQTHQDQTCPDGYTRTNYYCRRDGCGSWCNGAERQQPCIRGPCCCDLTYRTAYEYHVET
notes: not shown: poly-histidine, c-myc tag, M13 pIII
Question: Does B2 bind [2]?
Answer: binds

B3: K57chemFE knob domain peptide (peptide)
peptide: GCPPGYKSGVDCSPGSECKWGCYAVDGRRYGGYGADSGVGS
Question: B3 was tested. Which “classical pathway haemolysis assay; IC50 (read off the curve)” value [3] did it give?
Answer: ~20 nM

Question: And the “alternative pathway complement ELISA (C5b deposition); IC50 (read off the curve)” value [4]?
Answer: ~90 nM

Question: And the Kd [5]?
Answer: 2.28 nM

Question: And the koff [5]?
Answer: 0.000579 s⁻¹

Question: And the kon [5]?
Answer: 260000 M⁻¹ s⁻¹

Question: Does B3 bind [6]?
Answer: no binding

Question: What about the “classical pathway complement ELISA (C5b deposition); IC50 (read off the curve)” value [7] of the same binder?
Answer: ~20 nM

B4: hC3nb1 VHH with C-terminal single-chain Fc tag (VHH, not shown: a dimerising Fc or GST)
VHH: QVQLVETGGGLVQAGGSLRLSCAASGSIFSLNAMGWFRQAPGKEREFVATINRSGGRTYYADSVKGRFTISRDNGKNMVYLQMHSLKPEDTAIYYCAAGTGWSPQTDNEYNYWGQGTQVTVSS
notes: also called hC3Nb1 WT
Question: B4 was tested. Which “classical pathway C5b neoepitope ELISA; IC50 (read off the curve)” value [8] did it give?
Answer: ~10 nM

Question: And the Kd [9]?
Answer: 0.163 nM

Question: Does B4 bind [10]?
Answer: no binding

Question: What about the “alternative pathway C5b neoepitope ELISA; IC50 (read off the curve)” value [11] of the same binder?
Answer: ~100 nM

B5: K57, reduced and cysteines capped with iodoacetamide (peptide)
peptide: GC(Cam)PPGYKSGVDC(Cam)SPGSEC(Cam)KWGC(Cam)YAVDGRRYGGYGADSGVGS
notes: also called K57 (loss of disulphide bonds)
Question: For B5, which Kd [12] is on record?
Answer: 76 nM

B6: K57 knob domain peptide cleaved from the 645 Fab (peptide)
peptide: GSSGCPPGYKSGVDCSPGSECKWGCYAVDGRRYGGYGADSGVENLYFQ
notes: Recombinant, cut out by TEV protease
Question: What does the source list for B6?
Answer: Inhibition of classical pathway mediated C5a release, geomean IC50 [13]: 4 nM; Inhibition of alternative pathway mediated C5a release, average Emax [14]: 97.8%; Inhibition of alternative pathway mediated C5a release, geomean IC50 [14]: 26.6 nM; IC50 [15]: 4 nM and 3.2 nM and 3.5 nM and 3.6 nM; Ki [15]: 1.8 nM; AP mediated bacterial killing assay, IC50 [16]: 1220 nM; binding result [17]: no binding; Kd [18]: < 40 nM; binding result [19]: no binding; binding result [20]: no binding; Kd [21]: 1.4 nM; koff [21]: 0.000408 s⁻¹; kon [21]: 298000 M⁻¹ s⁻¹; Inhibition of classical pathway mediated bacterial lysis, geomean IC50 [22]: 115 nM; Inhibition of alternative pathway mediated bacterial lysis, average Emax [23]: 122%; Inhibition of alternative pathway mediated bacterial lysis, geomean IC50 [23]: 1020 nM

B7: hC3nb1-K149 (K149 ultralong CDR-H3 in framework 3 of hC3nb1) displayed on M13 phage (bispecific antibody)
VHH: QVQLVETGGGLVQAGGSLRLSCAASGSIFSLNAMGWFRQAPGKEREFVATINRSGGRTYYADSVKGRFTISRDNGTSVLQSTKPQKSCPDGFSYRSWDDFCCPMVGRCLAPRNTYTTEFTIEAKNMVYLQMHSLKPEDTAIYYCAAGTGWSPQTDNEYNYWGQGTQVTVSS
notes: also called hC3nb1-K149 CDR-H3; not shown: poly-histidine, c-myc tag, M13 pIII
Question: Does B7 bind [24]?
Answer: no binding

Question: Does B7 bind [25]?
Answer: no binding
